Patent US20180016324A1 (Regeneron, published 2018)

Tests used:
[1] = target: ZIKV envelope glycoprotein (E) of strain MR766 (Uganda 1947) (Zika virus, UniProt Q32ZE1 291-790); test: cell-based or functional assay
[2] = target: ZIKV envelope glycoprotein (E) of strain FLR (Colombia 2015) (Zika virus); test: cell-based or functional assay
[3] = target: ZIKV envelope glycoprotein (E) of strain PRVABC59 (Puerto Rico 2015) (Zika virus); test: cell-based or functional assay
[4] = target: T1, ZIKV (prM80E) with a C-terminal myc-myc-hexahistidine tag (Zika virus, UniProt A0A024B7W1 104-694); test: SPR, mAb captured, 37C
T1 construct: also called ZIKV (prM80E)-mmH; ZIKV-mmH

[5] = target: T1, ZIKV (prM80E) with a C-terminal …; test: SPR, mAb captured, 37C, pH 5.0 chase
[6] = target: T1, ZIKV (prM80E) with a C-terminal …; test: SPR, mAb captured, 25C
[7] = target: T1, ZIKV (prM80E) with a C-terminal …; test: SPR, mAb captured, 37C; remark: listed apart in the source
[8] = target: T1, ZIKV (prM80E) with a C-terminal …; test: SPR, mAb captured, 37C, pH 5.5 chase
[9] = target: T1, ZIKV (prM80E) with a C-terminal …; test: SPR, mAb captured, 37C; remark: listed apart in the source
[10] = target: T2, ZIKV prM/E polyprotein on virus-like particles (VLPs) from HEK293T/17 cells (Zika virus, UniProt A0A024B7W1 123-795); test: MSD ECL, VLPs on plate
T2 construct: also called ZIKV prM/E VLPs; Zika prM/E VLPs

[11] = target: T1, ZIKV (prM80E) with a C-terminal …; test: SPR, mAb captured, 37C, pH 6.0 chase
[12] = target: T1, ZIKV (prM80E) with a C-terminal …; test: SPR, mAb captured, 37C, pH 7.4
[13] = target: T2, ZIKV prM/E polyprotein on virus-like …; test: MSD ECL, VLPs on plate; high concentrations excluded from fit

Binder	neutralization IC50, Vero cells [1]	neutralization IC50, Vero cells [2]	neutralization IC50, Vero cells [3]	t½ pH 7.4/t½ pH 5.0 [4]	t½ pH 7.4/t½ pH 5.5 [4]	koff [5]	t½ [5]	Kd [6]	koff [6]	kon [6]	t½ [6]	Kd [7]	koff [7]	kon [7]	t½ [7]	koff [8]	t½ [8]	t½ pH 7.4/t½ pH 6.0 [9]	koff [11]	t½ [11]	also measured
H4H25592P (antibody, V domains shown) VH: QVQLVESGGGVVQPGRSLRLSCAASGFTFSYSGMHWVRQAPGKGLEWVAVISYDGSNKYYADSVKGRFTISRDNSNNILYLQMNSLRAEDTAVYYCAKDWGGRFDPWGQGTLVTVSS VL: DIQMTQSPSSLSASVGDRVTITCRASQGISSYLAWYQQIPGKVPKLLIYAASTLHSGVPSRFSGSGSGTDFTLTISSLQPADVATYYCQKYNSAPLTFGGGTKVEIK	0.0426 nM	0.553 nM	0.218 nM	3.8	4.2	0.00658 s⁻¹	1.8 min	0.502 nM	0.000676 s⁻¹	1.35e+06 M⁻¹ s⁻¹	17.1 min	1.02 nM	0.00165 s⁻¹	1.61e+06 M⁻¹ s⁻¹	7 min	0.00736 s⁻¹	1.57 min	2.9	0.00503 s⁻¹	2.3 min	EC50 [10]: 0.213 nM; koff [12]: 0.00174 s⁻¹; t½ [12]: 6.63 min
H4H25640P (antibody, V domains shown) VH: QVQLVESGGGVVQPGRSLRLSCAASGFTFSYYGMHWVRQAPGKGLEWVAVILYDGSNKFYSDSVKGRFTISRDNSRNTLYLQMNSLRLEDTAVYYCAKDYGGRFDYWGQGTLVTVSS VL: EIVLTQSPGTLSLSSGERATLSCRASQSVSNKYLAWYQQKPGQVPRLLIYGASNRATGIPDRFSGSGSGTDFTLTINRLEPEDFAVFYCQQYGSTPSTFGQGTKVEIK	0.0279 nM	0.099 nM	0.166 nM	2	2.3	0.00337 s⁻¹	3.4 min	0.597 nM	0.000722 s⁻¹	1.21e+06 M⁻¹ s⁻¹	16 min	1.27 nM	0.00186 s⁻¹	1.47e+06 M⁻¹ s⁻¹	6.2 min	0.00402 s⁻¹	2.87 min	1.9	0.00323 s⁻¹	3.58 min	EC50 [13]: 0.102 nM; koff [12]: 0.00172 s⁻¹; t½ [12]: 6.72 min
H4H25641P (antibody, V domains shown) VH: QVQLVESGGGVVQPGRSLRLSCAASGFTFSYYGMHWVRQAPGKGLEWVAVISYDASNNYYVDSVKGRFTISRDNSKNTLYLQMNSLRAEDTAVYYCAKDYGGRFDYWGQGTLVTVSS VL: EIVLTQSPGTLSLSPGERATLSCGASQSVSSYLAWYQQKPGQTPRLLIYGASSRATGIPDRFSGSGSGTDFTLTISRLEPEDFAVYYCQQYGSSPWTFGQGTKVEIK	0.0371 nM	0.212 nM	0.356 nM	0.7	1.1	0.0133 s⁻¹	0.9 min	8.75 nM	0.00922 s⁻¹	1.05e+06 M⁻¹ s⁻¹	1.3 min	11.9 nM	0.0188 s⁻¹	1.59e+06 M⁻¹ s⁻¹	0.6 min	0.0204 s⁻¹	0.57 min	0.8	0.0159 s⁻¹	0.73 min	EC50 [10]: 2.87 nM; koff [12]: 0.0191 s⁻¹; t½ [12]: 0.61 min
H4H25598P (antibody, V domains shown) VH: EVQLVESGGGLVQPGGSLRLSCAASGFTVSSNYMSWVRQAPGSGLEWVSVIYSGGITHYIGSVKGRFTISRHNSKNTLYLQMNSLRAEDTAMYYCARERYSGITGNPYGFDFWGQGTMVTVSS VL: DIQLTQSPSFLSASVGDRVTITCWASQDISSYLAWYQQKPGIAPKLLIYSASTLQSGVPSSFSGSGSGTEFTLTISSLQPEDFATYYCQQLNIYPFTFGPGTKVDIK	0.0545 nM	0.553 nM	0.398 nM	288	187	0.114 s⁻¹	0.1 min	0.156 nM	4.49e-05 s⁻¹	289000 M⁻¹ s⁻¹	257 min	0.7 nM	0.000284 s⁻¹	406000 M⁻¹ s⁻¹	40.7 min	0.0741 s⁻¹	0.16 min	32.4	0.0129 s⁻¹	0.9 min	EC50 [10]: 0.426 nM; koff [12]: 0.000397 s⁻¹; t½ [12]: 29.1 min
H4H25602P (antibody, V domains shown) VH: EVQLVESGGGLVQPGGSLRLSCAASGFTVSSNYMSWVRQAPGSGLEWVSVIYSGGITHYVDSVKGRFTISRHNSKNTLYLQMNSLRAEDTAMYYCARERYSGITGNPYGFDIWGQGTMVTVSS VL: DIQLTQSPSFLSASVGDRVTITCWASQDISSYLAWYQQKPGIAPKLLIYAASTLQSGVPSRFSGSGSGTEFTLTISSLQPEDFATYYCQQLNIYPFTFGPGTKVDIK	0.0531 nM	0.63 nM	0.501 nM	272	134	0.097 s⁻¹	0.1 min	0.07 nM	1.95e-05 s⁻¹	286000 M⁻¹ s⁻¹	592 min	0.745 nM	0.000284 s⁻¹	381000 M⁻¹ s⁻¹	40.6 min	0.0476 s⁻¹	0.24 min	34.1	0.0122 s⁻¹	0.95 min	EC50 [10]: 1.56 nM; koff [12]: 0.000356 s⁻¹; t½ [12]: 32.5 min
H4H25637P (antibody, V domains shown) VH: QLQLQESGPGLVKPSETLSLTCTVSGDSISSSNYFWGWIRQPPGKGLEWIGNIYYSGDTYYNPSLKSRVTMSVDTSKKQFSLKLRSVTAADTAVYYCARGRPYYDFWSGYFDYWGQGTLVTVSS VL: EIVLTQSPGTLSLSPGERATLPCRASQSVSSSYLAWYQQKPGQAPRLLIYGASSRATGIPDRFRGSGSGTDFTLTISRLEPEDFAVYYCQQYGTAPWTFGQGTKVEIK	0.0671 nM	0.134 nM	0.239 nM	0.2	0.4	0.00228 s⁻¹	5.1 min	6.33 nM	0.00391 s⁻¹	617000 M⁻¹ s⁻¹	3 min	9.97 nM	0.00989 s⁻¹	992000 M⁻¹ s⁻¹	1.2 min	0.00414 s⁻¹	2.79 min	0.3	0.00392 s⁻¹	2.95 min	EC50 [10]: 0.322 nM; koff [12]: 0.0118 s⁻¹; t½ [12]: 0.98 min
H4H25617P (antibody, V domains shown) VH: EVQLVESGGGLVQPGGSLRLSCSASGFTFTTYAMSWVRQAPGRGLEWVSSISGTGVSTYYADSVKGRFTISRDNSKNALYLQMNSLTAEDTAVYYCAKDSGTYHWGQGTLVTVSS VL: EIVLTQSPATLSLSPGERATLSCRASQSVDSYLAWYQQKPGQAPRLLIYDASNRATGIPARFSGSGSGTDFTLTISSLESEDFAVYYCQQRRNWPQFTFGGGTKVEIK	0.166 nM	0.552 nM	0.543 nM	0.8	0.8	0.00464 s⁻¹	2.5 min	7.9 nM	0.00197 s⁻¹	250000 M⁻¹ s⁻¹	5.9 min	16.1 nM	0.00729 s⁻¹	452000 M⁻¹ s⁻¹	1.6 min	0.00465 s⁻¹	2.48 min	0.8	0.00494 s⁻¹	2.34 min	EC50 [10]: 0.755 nM; koff [12]: 0.00602 s⁻¹; t½ [12]: 1.92 min
H4H25622P (antibody, V domains shown) VH: QVQLVESGGGVVQPGRSLRLSCAASGFTFSSYGMHWVRQAPGKGLEWLAIIWYDGTNKQYVDSVKGRFTISRDNSKNTLYLQLNSLRAEDTAVYYCARQDFYYYYGMDVWGQGTTVTVSS VL: not shown	0.188 nM	1.58 nM	1.28 nM	0.2	0.6	0.000704 s⁻¹	16.4 min	5.31 nM	0.00133 s⁻¹	251000 M⁻¹ s⁻¹	8.7 min	9.07 nM	0.00267 s⁻¹	295000 M⁻¹ s⁻¹	4.3 min	0.00178 s⁻¹	6.49 min	0.7	0.00234 s⁻¹	4.93 min	EC50 [10]: 2.44 nM; koff [12]: 0.00318 s⁻¹; t½ [12]: 3.63 min
